# Biological target: Pyruvate kinase M2 (PKM2) of mouse retina (mouse (endogenous in retina)) (UniProt P52480)
# Experiment: cross-linking
substance,measurement,value
Pyruvate kinase M2 (PKM2) of mouse retina (from UniProt P52480 1-531) (enzyme),stoichiometry N,4

# — paper PMC12700175
